{"source": "patent US20240269303A1", "about": "“CELL TARGETING CONSTRUCTS AND USES THEREOF” (Research Development Foundation, priority 2022, published 2024)", "molecules": {"B1": {"name": "FcF2-Q71R-MMAE (conjugate)", "chain": "EPKSCDKTHTCPPCPAPELLGGPSVFLFPPKPKDTLMISRTPEVTCVVVDVSHEDPEVKFNWYVDGVEVHNAKTKPREEQYNSTYRVVSVLTVDHHDWLNGKEYKCKVSNKALPAPIEKTISKAKGQPREPQVYTLPPSRDELTKNQVSLTCLVKGFYPSDIAVEWESNGQPENNYKTTPPVLDSDGSFFLYSKLTVDKSRWQQGNVFSCSVMHEALHSHYTQKSLSLSPGKGGGGSGGGGSSRGIKGKRQRRISAEGSQACAKGCELCSEVNGCLKCSPKLFILLERNDIRRVGVCLPSCPPGYFDARNPDMNKCIKCKIEHCEACFSHNFCTKCKEGLYLHKGRCYPACPEGSSAANGTMECSSPGGGGSGGGGSLPETGGG", "modifications": "non-natural residues"}, "B2": {"name": "FcF-Q71R-F106R-F110R-MMAE (conjugate)", "chain": "B1 chain with F328R, F332R", "modifications": "non-natural residues"}, "B3": {"name": "FcF2-F106R-F110R-MMAE (conjugate)", "chain": "B1 chain with R293Q, F328R, F332R", "modifications": "non-natural residues"}, "B4": {"name": "FcF2-R28A-MMAE: FcF2-MMAE with R28A substitution in the Fu1-Fu2 region (SEQ ID NO: 98) (conjugate)", "chain": "B1 chain with R250A, R293Q", "modifications": "non-natural residues"}, "B5": {"name": "FcF2-R30A-MMAE: FcF2-MMAE with R30A substitution in the Fu1-Fu2 region (SEQ ID NO: 102) (conjugate)", "chain": "B1 chain with R252A, R293Q", "modifications": "non-natural residues"}, "B6": {"name": "FcF2-PNU159682: FcF2-His conjugated with PNU159682, an anthracycline derivative, using sortase A (conjugate)", "chain": "EPKSCDKTHTCPPCPAPELLGGPSVFLFPPKPKDTLMISRTPEVTCVVVDVSHEDPEVKFNWYVDGVEVHNAKTKPREEQYNSTYRVVSVLTVDHHDWLNGKEYKCKVSNKALPAPIEKTISKAKGQPREPQVYTLPPSRDELTKNQVSLTCLVKGFYPSDIAVEWESNGQPENNYKTTPPVLDSDGSFFLYSKLTVDKSRWQQGNVFSCSVMHEALHSHYTQKSLSLSPGKGGGGSGGGGSSRGIKGKRQRRISAEGSQACAKGCELCSEVNGCLKCSPKLFILLERNDIRQVGVCLPSCPPGYFDARNPDMNKCIKCKIEHCEACFSHNFCTKCKEGLYLHKGRCYPACPEGSSAANGTMECSSPGGGGSGGGGSLPET", "modifications": "cyclised or stapled"}, "B7": {"name": "FcST4-MMAE: Mutated Fc with two receptor binding domains (ST) in series per chain (4 in dimer), sortase-conjugated to MMAE (conjugate)", "chain": "EPKSCDKTHTCPPCPAPELLGGPSVFLFPPKPKDTLMISRTPEVTCVVVDVSHEDPEVKFNWYVDGVEVHNAKTKPREEQYNSTYRVVSVLTVDHHDWLNGKEYKCKVSNKALPAPIEKTISKAKGQPREPQVYTLPPSRDELTKNQVSLTCLVKGFYPSDIAVEWESNGQPENNYKTTPPVLDSDGSFFLYSKLTVDKSRWQQGNVFSCSVMHEALHSHYTQKSLSLSPGKGGGGSGGGGSSRGIKGKRQRRISAEGSQACAKGCELCSEVNGCLKCSPKLFILLERNDIRQVGVCLPSCPPGYFDARNPDMNKCIKCKIEHCEACFSHNFCTKCKEGLYLHKGRCYPACPEGSSAANGTMECSSPGGGGSGGGGSSRGIKGKRQRRISAEGSQACAKGCELCSEVNGCLKCSPKLFILLERNDIRQVGVCLPSCPPGYFDARNPDMNKCIKCKIEHCEACFSHNFCTKCKEGLYLHKGRCYPACPEGSSAANGTMECSSPGGGGSGGGGSLPETGGG", "modifications": "non-natural residues"}, "B8": {"name": "FcF2Δlinker-MMAE (conjugate)", "chain": "EPKSCDKTHTCPPCPAPELLGGPSVFLFPPKPKDTLMISRTPEVTCVVVDVSHEDPEVKFNWYVDGVEVHNAKTKPREEQYNSTYRVVSVLTVDHHDWLNGKEYKCKVSNKALPAPIEKTISKAKGQPREPQVYTLPPSRDELTKNQVSLTCLVKGFYPSDIAVEWESNGQPENNYKTTPPVLDSDGSFFLYSKLTVDKSRWQQGNVFSCSVMHEALHSHYTQKSLSLSPGKSRGIKGKRQRRISAEGSQACAKGCELCSEVNGCLKCSPKLFILLERNDIRQVGVCLPSCPPGYFDARNPDMNKCIKCKIEHCEACFSHNFCTKCKEGLYLHKGRCYPACPEGSSAANGTMECSSPLPETGGG", "modifications": "non-natural residues"}}, "key": {"[1]": {"test_system": "OVCAR8/LGR5 cells", "assay": "Growth rate inhibition assay (CCK8, 120 h exposure)", "format": "cell-based, human"}, "[2]": {"assay": "Plasma pharmacokinetics after IV injection (ELISA)"}, "[3]": {"assay": "Stability of FcST4-MMAE (storage, low pH, freeze and thaw)", "format": "physicochemical", "method": "Based on the hypothesis that RSPO1 could be used to target cytotoxic drugs selectively to CSC, a compound that contained 2 binding domains and armed this with the cytotoxin monomethylaurostatin (R1FF-MMAE) was generated. Since affinity of a ligand can be affected by the number of binding sites, tests were performed to see if the potency of R1FF-MMAE could be further enhanced by increasing the number of binding domains. A vector capable of expressing a protein containing 4 modified binding domains was constructed, and the FcST4-His protein was successfully produced in transiently transfected HEK293E cells and purified using nickel and ion exchange resins. Following attaching MMAE to the polypeptide using the sortase reaction, this drug (FcST4-MMAE) was characterized using gel electrophoresis, HPLC analysis on ion exchange and size exclusion columns, Western blot, and cytotoxicity testing.\nTo assess the stability of the FcST4-MMAE molecule, the sample was subjected to multiple freeze and thaw cycles."}, "[4]": {"test_system": "OVCAR8 cells expressing empty vector versus cells overexpressing LGR5 receptors", "assay": "FcST4-MMAE cytotoxicity assay", "format": "cell-based, human"}, "[5]": {"test_system": "HEK293e empty vector cells versus cells overexpressing LGR5 receptors", "assay": "FcST4-MMAE cytotoxicity assay (CCK8, day 6)", "format": "cell-based, human", "settings": "batches 2-6"}, "[6]": {"settings": "OVCAR8/EV vs OVCAR8/LGR5, 120 h, Fu1/Fu2 binding-disabling mutation study"}, "[7]": {"settings": "OVCAR8/EV and OVCAR8/LGR5, proteins produced in ExpiCHO"}}, "note": "Substitutions are numbered along the chain they refer to. Numbers in names are those of the source. Like-named read-outs stand apart in the source and are kept apart here."}
{"molecule": "B1", "values": [{"measurement": "IC50 ratio", "setting": "[1]; [6]", "value": 5.1}]}
{"molecule": "B2", "values": [{"measurement": "IC50 ratio", "setting": "[1]; [6]", "value": "selectivity was abolished"}]}
{"molecule": "B3", "values": [{"measurement": "IC50 ratio", "setting": "[1]; [6]", "value": 2.1}]}
{"molecule": "B4", "values": [{"measurement": "increase of AUC0-120 versus FcF2-MMAE (WT)", "setting": "[2]; IV injection", "value": 3.4, "unit": "fold"}, {"measurement": "initial half-life versus FcF2-MMAE (WT)", "setting": "[2]; IV injection", "value": "prolonged the initial half-life"}, {"measurement": "plasma concentration higher than that of FcF2-MMAE", "setting": "[2]; early phase of the plasma decay curve", "value": "> 2 orders of magnitude"}, {"measurement": "potency and selectivity for LGR5-rich cells compared with FcF2-MMAE (WT)", "setting": "[1]", "value": "neither the R28A nor the R30A mutation altered potency of selectivity"}]}
{"molecule": "B5", "values": [{"measurement": "potency and selectivity for LGR5-rich cells compared with FcF2-MMAE (WT)", "setting": "[1]", "value": "neither the R28A nor the R30A mutation altered potency of selectivity"}]}
{"molecule": "B6", "values": [{"measurement": "IC50 ratio", "setting": "[1]", "value": "approximately 10"}]}
{"molecule": "B7", "values": [{"measurement": "stability to freeze and thaw cycles (SEC130 trace)", "setting": "[3]; 4 cycles", "value": "no significant change in the SEC130 trace"}, {"measurement": "stability", "setting": "[3]; at 4° C.", "value": "remarkably stable"}, {"measurement": "stability", "setting": "[3]; low pH of 3.0", "value": "remarkably stable"}, {"measurement": "difference in targeted killing, empty vector vs LGR5-overexpressing cells", "setting": "[4]; OVCAR8", "value": "not statistically significant"}, {"measurement": "effect of increase in binding domains on potency", "setting": "[4]; cytotoxicity testing", "value": "did not enhance potency"}, {"measurement": "difference in targeted killing, empty vector vs LGR5-overexpressing cells", "setting": "[5]", "value": "not statistically significant"}]}
{"molecule": "B8", "values": [{"measurement": "IC50 values or degree of selectivity compared with FcF2-MMAE", "setting": "[1]; [7]", "value": "no clear differences in IC50 values or degree of selectivity"}, {"measurement": "potency compared with FcF2-MMAE", "setting": "[1]; [7]", "value": "appeared to be less potent against both LGR5-poor and LGR5-rich cells"}]}
